Experimental data: patent US20090074795A1, “Methods for addressing ocular diseases through interference with the wnt signaling pathway” (priority 2007, published 2009)

Key:
HUVEC = experiment: DKK1 on VEGF over-expression in HUVEC transfected with VLDLR siRNA; assay type: cell-based; details: 10 μg/ml human DKK1, 24 hours, ELISA and RT-PCR, vs BSA
Procedure: The regulatory roles of VLDLR and the wnt pathway in VEGF expression in cultured endothelial cells was also investigated.
Vldlr^−/− mice received a subretinal injection of 5 μg purified mouse DKK1 into the right eyes, and the same amount BSA into the left eyes. According to embodiments shown in FIG. 9A, The eyecups were dissected 24 h following the injection for the following analyses, phosphorylated β-catenin and VEGF levels were measured by Western blot analysis of a representative mouse eyecup using the anti-phosphorylated β-catenin and anti-VEGF antibodies, respectively. According to embodiments shown in FIG. 9B, VEGF protein levels in Vldlr^−/− eyecups were measured using ELISA. According to embodiments shown in FIG. 9C, VEGF mRNA levels in the Vldlr^−/− eyecups were measured using quantitative real-time RT-PCR. Values are mean±SD (n=4). According to embodiments shown in FIGS. 9D-9G, Vldlr^−/− mice were injected with 5 μg/eye BSA into the subretinal space of the left eye (FIGS. 9D and 9F) and the same amount of DKK1 into the right eye (FIGS. 9E and 9G). […] VEGF protein was measured in the culture medium by ELISA (FIG. 9H) and the VEGF mRNA measured in the cells by real-time RT-PCR, normalized by 18s RNA and expressed as arbitrary unit (mean±SD, n=3) (FIG. 9I), 24 hours after the addition of DKK1. […]

STZ-diabetic BN rats = experiment: Retinal vascular permeability in STZ-induced diabetic rats; assay type: in vivo, rat; details: STZ-diabetic BN rats 16 weeks, 3 μg/eye intravitreal, 48 h, vs BSA contralateral eye, P<0.05
Procedure: To investigate if blockade of the wnt pathway reduces the retinal vascular hyper-permeability in diabetes, 3 μg purified DKK1 was intravitreally injected into the right eyes of STZ-diabetic BN rats at 16 weeks following the STZ injection, and the same amount of BSA into the contralateral eyes as control. The vascular permeability was measured at 48 h following the DKK1 injection.
The retinal vascular permeability was measured using Evans blue as a tracer, 48 hr after the injection. Vascular permeability was expressed as % of the permeability in the contralateral control (mean±SD, n=4), P<0.05.
Measurement of vascular permeability: Vascular permeability will be quantified by measuring FITC-BSA leakage from blood vessels into the retina following a method with modifications. The mice anesthetized and FITC-BSA (10 mg/kg body weight) is injected through the femoral vein under microscopic inspection. […] The fluoresce density of fluorescein-albumin from supernatant and serum is measured at excitation wave 485 nm/emission wave 530 nm. Retinal protein levels are measured in the pellet by Bradford assays with quantification at […]. The FITC-BSA levels in the retina are then calculated by the supernatant fluoresce density and normalized to retinal protein levels and normalized to serum FITC levels.

Vldlr^−/− mice = experiment: Subretinal injection of purified mouse DKK1 in Vldlr−/− mice (β-catenin phosphorylation, VEGF in eyecup); assay type: in vivo
Procedure: To confirm the association of the wnt pathway activation with VEGF over-expression in Vldlr^−/− mice, 5 μg purified mouse DKK1, a specific inhibitor of the wnt signal pathway by binding with LRP5/6, were injected into the subretinal space of the Vldlr^−/− mice into one eye and the same amount of a control protein (BSA) into the contralateral eye. Twenty-four hours after the injection, β-catenin phosphorylation and VEGF levels in the eyecup were measured by western blot analysis.
Vldlr^−/− mice received a subretinal injection of 5 μg purified mouse DKK1 into the right eyes, and the same amount BSA into the left eyes. According to embodiments shown in FIG. 9A, The eyecups were dissected 24 h following the injection for the following analyses, phosphorylated β-catenin and VEGF levels were measured by Western blot analysis of a representative mouse eyecup using the anti-phosphorylated β-catenin and anti-VEGF antibodies, respectively. According to embodiments shown in FIG. 9B, VEGF protein levels in Vldlr^−/− eyecups were measured using ELISA. According to embodiments shown in FIG. 9C, VEGF mRNA levels in the Vldlr^−/− eyecups were measured using quantitative real-time RT-PCR. Values are mean±SD (n=4). According to embodiments shown in FIGS. 9D-9G, Vldlr^−/− mice were injected with 5 μg/eye BSA into the subretinal space of the left eye (FIGS. 9D and 9F) and the same amount of DKK1 into the right eye (FIGS. 9E and 9G). The ocular sections were immunostained with an anti-VEGF antibody (FIGS. 9D and 9E) and an anti-β-catenin antibody (FIGS. 9F and 9G). 400×. PRL, photoreceptor layer. According to embodiments shown in FIGS. 9H and 9I, HUVEC were transfected with the VLDLR siRNA. The transfected cells were treated with 10 μg/ml human DKK1or BSA. VEGF protein was measured in the culture medium by ELISA (FIG. 9H) and the VEGF mRNA measured in the cells by real-time RT-PCR, normalized by 18s RNA and expressed as arbitrary unit (mean±SD, n=3) (FIG. 9I), 24 hours after the addition of DKK1.
VEGF ELISA: The human VEGF QuantiGlo ELISA kit (R&D Systems, Inc., Minneapolis, Minn.) was used to measure VEGF levels in HUVEC and ARPE19 cells, and the mouse VEGF Quantikine ELISA kit (R&D Systems, Inc.) was used for mouse tissues following the manufacturer's protocol. The samples of the culture medium were concentrated 10 times, and the samples from mouse tissues were diluted 10 times to ensure that the VEGF concentration fell within the range of the VEGF standard curves.
Western Blot Analysis: The same amount (100 μg) of total proteins from mouse eyecups were used for Western blot analysis using specific primary antibodies for each protein and blotted with an horseradish peroxidase-conjugated secondary antibody. The signal was developed with a chemiluminescence detection kit (ECL; Amersham Biosciences). Blots were then stripped and re-blotted with an antibody specific for β-actin. Each protein band was semiquantified by densitometry and normalized by β-actin levels in the same gel.
Quantitative Real-time Reverse Transcription (RT)-PCR: Mice eyes were enucleated immediately after death into chilled diethylpyrocarbonate-treated normal saline, and the retinas were dissected. Total RNA was isolated using a commercial kit (Qiagen, Santa Clarita, Calif.). […] Fluorescence changes were monitored after each cycle. […] The average CT (threshold cycle) of fluorescence unit was used to analyze the mRNA levels. […]

[1] = 5 μg/eye subretinal, immunohistochemistry, vs BSA contralateral eye

B1: DKK1: Purified Dickkopf-1 protein (R&D System), specific inhibitor of the wnt pathway binding LRP5/6; mouse protein in mice, human in HUVEC (protein, UniProt O54908 32-272; O54908 32-272, looked up)
Dickkopf-related protein 1 1: TLNSVLINSNAIKNLPPPLGGAGGQPGSAVSVAPGVLYEGGNKYQTLDNYQPYPCAEDEECGSDEYCSSPSRGAAGVGGVQICLACRKRRKRCMRHAMCCPGNYCKNGICMPSDHSHFPRGEIEESIIENLGNDHNAAAGDGYPRRTTLTSKIYHTKGQEGSVCLRSSDCAAGLCCARHFWSKICKPVLKEGQVCTKHKRKGSHGLEIFQRCYCGEGLACRIQKDHHQASNSSRLHTCQRH
Dickkopf-related protein 1 2: TLNSVLINSNAIKNLPPPLGGAGGQPGSAVSVAPGVLYEGGNKYQTLDNYQPYPCAEDEECGSDEYCSSPSRGAAGVGGVQICLACRKRRKRCMRHAMCCPGNYCKNGICMPSDHSHFPRGEIEESIIENLGNDHNAAAGDGYPRRTTLTSKIYHTKGQEGSVCLRSSDCAAGLCCARHFWSKICKPVLKEGQVCTKHKRKGSHGLEIFQRCYCGEGLACRIQKDHHQASNSSRLHTCQRH
modifications: mouse protein in mice, human in HUVEC
VEGF over-expression induced by the VLDLR siRNA (HUVEC): blocked the VEGF over-expression | retinal vascular permeability (STZ-diabetic BN rats): significantly reduced retinal vascular permeability | VEGF mRNA levels in Vldlr−/− eyecups (Vldlr^−/− mice; 5 μg subretinal, 24 h, real-time RT-PCR, vs BSA): significantly decreased | phosphorylation of β-catenin in eyecup (Vldlr^−/− mice; 5 μg subretinal, 24 h, western blot, vs BSA contralateral eye): increased phosphorylation of β-catenin | VEGF protein levels in Vldlr−/− eyecups (Vldlr^−/− mice; 5 μg subretinal, 24 h, western blot/ELISA, vs BSA): significantly decreased | levels of VEGF in the RPE (Vldlr^−/− mice; [1]): significantly decreased | levels of β-catenin in the RPE (Vldlr^−/− mice; [1]): significantly decreased
